From patent US20240150475A1 (Molecular Partners, published 2024)

T1: biotinylated extracellular domains of human CD123 with C-terminal Fc tag and Avi tag (bio.hCD123-Fc(kih)-Avi) (human, UniProt P26951 19-303, biotinylated with BirA-GST (Avi tag))
T1 construct: Bought from Evitria; the second Fc chain and the number of CD123 arms are not described; also called biotinylated hCD123; recombinant human CD123 target; not shown: Avi tag
T1 sequence: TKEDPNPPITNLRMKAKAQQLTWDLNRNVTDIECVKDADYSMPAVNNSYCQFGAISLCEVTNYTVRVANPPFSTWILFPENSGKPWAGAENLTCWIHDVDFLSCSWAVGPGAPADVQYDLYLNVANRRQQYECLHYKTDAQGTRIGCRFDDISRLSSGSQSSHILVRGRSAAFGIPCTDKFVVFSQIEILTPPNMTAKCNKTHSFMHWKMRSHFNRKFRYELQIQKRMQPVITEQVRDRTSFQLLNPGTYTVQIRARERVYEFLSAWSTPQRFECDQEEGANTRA


Tests used:
[1] = molecular target: T1, biotinylated extracellular domains of …; assay: SPR (ProteOn XPR36), bio.hCD123 immobilised on NLC chip, DARPin in TCE format injected at 50 nM, single trace
Experimental: SPR measurements were performed using a ProteOn XPR36 instrument (BioRad). The running buffer was PBS pH 7.4 containing 0.005% Tween 20® (PBST). The bio.hCD123 target was immobilized on a NLC chips (BioRad) to a level of 600 RU. The interactions of the 96well purified CD123-specific ankyrin repeat proteins in TCE format to bio. hCD123 were measured by injecting the DARPin® molecules at 50 nM with an association of 120 s and dissociation of 1200 s using a constant flow of 100 μl/min. Some DARPin proteins were reinjected using a dissociation of 600 s. The target was regenerated between the individual measurements using 10 mM Glycine pH2.5. The signals were double referenced against the running buffer (PBST) treated control lane of L1 and A6.
Dissociation constants (KD) were calculated from the estimated on- and off-rates using standard procedures known to the person skilled in the art. KD values were determined by single trace SPR. The values in Table 2a are averages of multiple replicates.

[2] = molecular target: T2, CD123 expressed on the surface of Molm-13 (Molm-13 N1) tumor cells (human, UniProt P26951 19-378); assay: flow cytometry on CD123-expressing Molm-13 N1 tumor cells, monospecific format
T2 construct: whole, on cells; also called CD123-expressing tumor cells; CD123 expressed on tumor cells
Experimental: Binding of binding proteins of the invention to CD123 expressed on the surface of tumor cells was analyzed by fluorescence activated cell sorting (FACS) flow cytometry. For this purpose, CD123 expressing tumor cells (Molm-13 N1) were seeded at 100′000 cells per well in a 96 well plate. DARPin protein #2, DARPin protein #3, DARPin protein #9, DARPin protein #12, DARPin protein #13 and DARPin protein #14, in monospecific format, were titrated down in 1:5 dilution ratio starting at 2000 nM. Tumor cells were resuspended with diluted DARPin proteins and incubated for 60 minutes at 4° C. The assay was performed in PBS including 2% fetal bovine serum without human serum albumin (HSA). After washing twice with Phosphate Buffer saline (PBS), DARPin® protein specific tumor cell binding was detected by adding unlabeled primary anti-rabbit DARPin® antibody (anti-rabbit 1-1-1 antibody, CePower) at 2 ug/ml. An incubation step of at least 30 minutes at 4° C. followed. Afterwards, cells were washed with PBS and a secondary goat anti-rabbit antibody labelled with Alexa Fluor 488 antibody (ThermoFisher) at 2 ug/ml was added. The same incubation conditions applied. Finally, the cells were washed twice and resuspended in Cytofix fixation buffer (BD Biosciences) for 15 min at room temperature (RT).

[3] = molecular target: T1, biotinylated extracellular domains of …; assay: SPR (ProteOn), bio.hCD123 on neutravidin-coated GLC chip, DARPin 100-1.2 nM, 1:1 Langmuir fit
Experimental: Moreover, the binding affinities of three additional purified ankyrin repeat proteins on recombinant human CD123 target were measured and analyzed with a procedure as described above for DARPin proteins #1, #3 to #9. Briefly, neutravidin was precoated on a GLC chip (BioRad) to a level of 6000 RU. In a second step, bio.hCD123 was immobilized to a level of 1030 RU. A serial dilution of 100, 33, 11, 3.7 and 1.2 nM was used to measure the binding of DARPin protein #12, DARPin protein #13 and DARPin protein #14 to bio.hCD123. For all described measurements, an association of 120 s and dissociation of 1200 s using a constant flow of 100 μl/min were applied. The CD123 target was regenerated with two different conditions (10 mM Glycine pH2.0 and 4M MgCl2) each applied for 30s. The signals were double referenced against interspot and the running buffer (PBST-PBS pH 7.4 containing 0.005% Tween 20®) treated control lane A6. The 1:1 Langmuir model was used for the fitting.
KD values were calculated from the estimated on- and off-rates using standard procedures known to the person skilled in the art. The values in Table 2b are averages of multiple replicates.

Kd [1] [nM]	EC50 [2] [nM]	Kd [3] [nM]	Binder
1	–	–	DARPin® protein #8 (in TCE format) (designed binder, not shown: small tags and cut ends) MRGSHHHHHHGSDLGKKLLNAAHIGQDDEVRILLAAGADVNAKDIVGKTPLHIAAWLGHLEIVEVLLKAGADVNAKDDHGWTPLHIAAHVGHLEIVEVLLKAGADVNAQDNAGNTPADLVAFQGHEDIAEVLQKAA
0.93	–	–	DARPin® protein #7 (in TCE format) (designed binder, not shown: small tags and cut ends) MRGSHHHHHHGSDLGKKLLQAARAGQLDEVRELLKAGADVNAKDEYGLTPLHLAAEFGHLEIVEVLLKAGADVNAKDANGHTPLHLAAAYDHLEIVEVLLKAGADVNAKDTSGKTPLHLAAQYGHLEIVEVLLKAGADVNAQDKSGKTPADLAARAGHQDIAEVLQKAA
–	1.3	0.02	DARPin® protein #14 (designed binder) DLGKKLLQAALEGQLDEVRELLKAGADVNAKDIEGYTPLHLAAALGHLEIVEVLLKAGADVNAKDQIGRTPLHLAAYKGHLEIVEVLLKAGADVNAQDIIGQTPADLAAQRGHQDIAEVLQKAA
2.1	–	–	DARPin® protein #9 (in TCE format) (designed binder, not shown: small tags and cut ends) MRGSHHHHHHGSDLGWKLLDAAEIGQDDEVRILLAAGADVNAKDKQGITPLHIAAAHGHLEIVEVLLKAGADVNAKDEIGRTPLHLAAFKGHLEIVEVLLKAGADVNAQDIIGETPADLAAVRGHEDIAEVLQKAA
4.5	–	–	DARPin® protein #6 (in TCE format) (designed binder, not shown: small tags and cut ends) MRGSHHHHHHGSDLGEKLLEAALEGQDDEVRELLKAGADVNAKDQEGYTPLHLAAALGHLEIVEVLLKAGADVNAKDSIDRTPLHLAAYKGHLEIVEVLLKAGADVNAQDAAGQTPADLAAALGHEDIAEVLQKAA
–	3.2	0.49	DARPin® protein #12 (designed binder) DLGWKLLDAAEIGQLDEVRILLKAGADVNAKDKQGITPLHIAAAHGHLEIVEVLLKAGADVNAKDEIGRTPLHLAAFKGHLEIVEVLLKAGADVNAQDIIGETPADLAAVRGHQDIAEVLQKAA

The next lines start with the binder.

Binder	Kd [1] [nM]	EC50 [2] [nM]	Kd [3] [nM]
DARPin® protein #5 (in TCE format) (designed binder, not shown: small tags and cut ends) MRGSHHHHHHGSDLGKKLLKAALLGQDDEVRELLKAGADVNAKDRFGYTPLHLAAWTGHLEIVEVLLKAGADVNAKDAYGWTPLHIAAHSGHLEIVEVLLKAGADVNAQDLEGETPADLAAAQGHEDIAEVLQKAA	8.5	–	–
DARPin® protein #4 (in TCE format) (designed binder, not shown: small tags and cut ends) MRGSHHHHHHGSDLGKKLLQAARAGQLDEVRELLKAGADVNAKDEYGATPLHLAAYSGHLEIVEVLLKAGADVNAKDEWGRTPLHVAALSGHLEIVEVLLKAGADVNAKDHQGRTPLHLAALWGHLEIVEVLLKAVADVNAQDKSGKTPADLAARAGHQDIAEVLQKAA	45	–	–
DARPin® protein #3 (monospecific format) (designed binder) DLGKKLLQAARAGQLDEVRELLKAGADVNAKDQYGRTPLHLAAIKGHLEIVEVLLKAGADVNAKDSLGYTPLHLAAVEGPLEIVEVLLKAGADVNAKDAYGQTPLHIAAAWGHLEIVEVLLKAVADVNAQDKSGKTPADLAARAGHQDIAEVLQKAA	–	77	–
DARPin® protein #3 (in TCE format) (designed binder, not shown: small tags and cut ends) MRGSHHHHHHGSDLGKKLLQAARAGQLDEVRELLKAGADVNAKDQYGRTPLHLAAIKGHLEIVEVLLKAGADVNAKDSLGYTPLHLAAVEGPLEIVEVLLKAGADVNAKDAYGQTPLHIAAAWGHLEIVEVLLKAVADVNAQDKSGKTPADLAARAGHQDIAEVLQKAA	0.52	–	–
DARPin® protein #13 (designed binder) DLGKKLLEAALEGQLDEVRELLKAGADVNAKDQEGYTPLHLAAALGHLEIVEVLLKAGADVNAKDQIGRTPLHLAAYKGHLEIVEVLLKAGADVNAQDIIGQTPADLAAQRGHQDIAEVLQKAA	–	0.41	0.02
DARPin® protein #2 (designed binder) DLGKKLLEAALEGQLDEVRELLKAGADVNAKDQEGYTPLHLAAALGHLEIVEVLLKAGADVNAKDSIGRTPLHLAAYKGHLEIVEVLLKAGADVNAQDLLGETPADLAAEQGHQDIAEVLQKAA	–	29	–
DARPin® protein #1 (in TCE format) (designed binder, not shown: small tags and cut ends) MRGSHHHHHHGSDLGKKLLEAALEGQDDEVRELLKAGADVNAKDQEGYTPLHLAAALGHLEIVEVLLKAGADVNAKDSIGRTPLHLAAYKGHLEIVEVLLKAGADVNAQDLLGETPADLAAEQGHEDIAEVLQKAA	12	–	–
DARPin® protein #9 (monospecific format) (designed binder) DLGWKLLDAAEIGQDDEVRILLAAGADVNAKDKQGITPLHIAAAHGHLEIVEVLLKAGADVNAKDEIGRTPLHLAAFKGHLEIVEVLLKAGADVNAQDIIGETPADLAAVRGHEDIAEVLQKAA	–	7.9	–
